Reference: patent publication US20230340159A1 (published 2023)
Substitutions are numbered along the chain they refer to.

T1: murine HER2 (murine, UniProt P70424 23-1256)
T1 chain: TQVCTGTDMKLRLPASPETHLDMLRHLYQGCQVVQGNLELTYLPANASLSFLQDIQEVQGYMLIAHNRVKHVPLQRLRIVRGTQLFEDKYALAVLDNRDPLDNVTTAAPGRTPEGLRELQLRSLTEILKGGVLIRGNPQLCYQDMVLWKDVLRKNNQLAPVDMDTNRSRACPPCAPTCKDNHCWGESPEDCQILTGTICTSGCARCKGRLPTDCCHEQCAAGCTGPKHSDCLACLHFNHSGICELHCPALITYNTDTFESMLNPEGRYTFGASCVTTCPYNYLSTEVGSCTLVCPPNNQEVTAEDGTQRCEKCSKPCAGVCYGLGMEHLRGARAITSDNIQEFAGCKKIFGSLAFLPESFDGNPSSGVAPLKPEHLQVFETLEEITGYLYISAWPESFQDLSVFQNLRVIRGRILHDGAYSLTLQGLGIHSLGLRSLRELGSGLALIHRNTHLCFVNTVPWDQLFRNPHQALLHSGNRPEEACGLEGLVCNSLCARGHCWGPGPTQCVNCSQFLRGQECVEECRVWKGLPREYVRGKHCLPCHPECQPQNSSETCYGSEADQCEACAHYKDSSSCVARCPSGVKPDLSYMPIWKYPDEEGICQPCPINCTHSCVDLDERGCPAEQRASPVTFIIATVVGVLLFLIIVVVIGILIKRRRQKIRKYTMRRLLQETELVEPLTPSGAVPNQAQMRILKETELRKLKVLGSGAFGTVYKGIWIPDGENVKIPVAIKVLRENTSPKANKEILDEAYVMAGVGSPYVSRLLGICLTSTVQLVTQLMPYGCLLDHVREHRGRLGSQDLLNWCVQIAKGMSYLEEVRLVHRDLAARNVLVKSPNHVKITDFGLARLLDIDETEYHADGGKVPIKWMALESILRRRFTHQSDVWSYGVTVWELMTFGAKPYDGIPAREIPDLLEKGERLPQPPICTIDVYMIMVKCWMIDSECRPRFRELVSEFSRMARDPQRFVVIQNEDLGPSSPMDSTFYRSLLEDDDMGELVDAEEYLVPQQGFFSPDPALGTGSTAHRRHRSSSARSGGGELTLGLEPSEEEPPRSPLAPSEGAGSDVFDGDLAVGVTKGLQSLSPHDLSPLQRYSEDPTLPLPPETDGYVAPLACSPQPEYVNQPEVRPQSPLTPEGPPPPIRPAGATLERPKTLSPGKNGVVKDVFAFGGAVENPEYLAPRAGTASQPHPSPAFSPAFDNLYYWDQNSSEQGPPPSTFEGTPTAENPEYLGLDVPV

B1: mouse CA9 (enzyme)
chain: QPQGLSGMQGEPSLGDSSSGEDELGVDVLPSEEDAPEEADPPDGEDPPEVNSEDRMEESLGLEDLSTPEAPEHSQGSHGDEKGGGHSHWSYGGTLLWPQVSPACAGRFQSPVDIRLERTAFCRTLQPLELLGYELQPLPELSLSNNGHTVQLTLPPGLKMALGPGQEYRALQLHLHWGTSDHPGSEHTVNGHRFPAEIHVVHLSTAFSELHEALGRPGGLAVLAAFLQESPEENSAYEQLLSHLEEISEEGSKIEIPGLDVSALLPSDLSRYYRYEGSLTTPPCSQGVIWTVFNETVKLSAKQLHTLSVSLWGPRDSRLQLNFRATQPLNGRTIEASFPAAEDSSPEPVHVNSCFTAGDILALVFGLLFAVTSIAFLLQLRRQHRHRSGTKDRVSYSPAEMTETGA
B2: 1121 Pro1042 (protein)
chain: QVQLQESGGGLVQAGGSLRLSCAASGFIFSDYAMTWVRQAPGKGLEWVSSINWSGTHTNYADSVKGRFTISRDNAKKTLYLQMNSLKSEDTAVYYCARGWMVVPDSTRGQGTQVTVSS
B3: 1091 Pro1039 (protein)
chain: QVQLQESGGGLVQPGGSLRLSCAASGFTFDDYAMSWVRQAPGKGLEWVSSINWSGTHTDYADSVKGRFTISRDNAKNTLYLQMNSLKSEDSAVYYCVKGWRLTGGYYDSVQGQGTQVTVSS
B4: 1092 Pro1040 (protein)
chain: B3 chain with P14A, G16A, M34L
B5: 1097 Pro1041 (protein)
chain: B3 chain with T28I, S35T, L102H, G104D, G105N, D108A, S109G
B6: 1055 Pro1036 (protein)
chain: QVQLQESGGGLVQPGGSLRLTCEVSGRAISSYAISWFRQAPGEEREFVAAINWSGTHTNYADSVKGRFTISRDNVKNTVYLQMNSLKPEDTATYFCSRGWSVFDPDYRGQGTQVTVSS
B7: 1059 Pro1038 (protein)
chain: B6 chain with E23A, V24A, N59D, V75A, T93V
B8: 1058 Pro1037 (protein)
chain: B6 chain with P14A, E23A, V24A, N59D, N77R
B9: 1160 Pro1046 (antibody, V domains shown)
VH: QVQLQESGGGLVQAGGSLRLSCAASGRTFSNERLGWFRQAPGKERELVAAIRWSGVIIGYADSVRGRFTISRDNAKSTVYLQMNSLRPEDTAVYFCAADRGVYGTWDYWGQGTQVTVSS
B10: 1159 Pro1045 (antibody, V domains shown)
VH: QVQLQESGGGLVQAGGSLRLSCATSGRTFSSLAMGWFRQAPGKERELVAGISWSGSTTYYADSVKGRFAISRDNAKNTVYLQMNSLKPEDTAVYYCAARTSSIATIGREYDYWGQGTQVTVSS
B11: h1159 Pro1062 (antibody, V domains shown)
VH: B10 VH with Q5L, A14P, A75S, V79L, K87R, P88A, Q118L
B12: h1156 Pro1061 (antibody, V domains shown)
VH: QVQLLESGGGLVQPGGSLRLSCAASRNIGSNYAVGWFRQAPGKEREPVAALRWTGSIIGYDDSLRGRFTISKDNSKNTLYLQMNSLKPEDTAVYYCAARILDRSSYDYWGQGTLVTVSS
B13: 1156 Pro1044 (antibody, V domains shown)
VH: B12 VH with L5Q, P14A, R19K, L20V, N74D, S75A, L79V, A92G, L114Q
B14: 1139 Pro1043 (protein)
chain: QVQLQESGGGLVQPGGSLRLSCAASGFTFDDYAMSWIRQAPGKEMEWVSGINWSGTHTRYADSVKGRFTISRDNAKNTLDLQMNSLISEDTAVYYCARGFAADSRSTRGQGTQVTVSS
B15: h1139 Pro1060 (protein)
chain: B14 chain with Q5V, L11V, Q13R, T78S, D80Y, I87R, S88A, V93L, Q113L
B16: h1162 Pro1064 (antibody, V domains shown)
VH: QVQLLESGGGLVQPGGSLRLSCAASGRPFSGNAMGWFRQAPGKEREFVAAISWSGDSTYYADSVKGRFTISRDNSKNTLYLQMNSLRAEDTAVYYCAATRSFYSRTYYTRPSDYNYWGPGTLVTVSS
B17: 1162 Pro1047 (antibody, V domains shown)
VH: B16 VH with L5Q, P14A, S75D, K76E, L79A, R87K, A88P, L122Q
B18: h456 Pro509 (antibody, V domains shown)
VH: QVQLVESGGGLVQPGGSLRLSCAASGSALIINAMGWYRQAPGKQRELVATVTRSGRTNYADSVKGRFTISRDNSKNTLYLQMNSLRAEDTAVYYCNVALWIADGEYDYWGQGTLVTVSS

Biological target: 456
Sequence (Q8VHB5 32-437): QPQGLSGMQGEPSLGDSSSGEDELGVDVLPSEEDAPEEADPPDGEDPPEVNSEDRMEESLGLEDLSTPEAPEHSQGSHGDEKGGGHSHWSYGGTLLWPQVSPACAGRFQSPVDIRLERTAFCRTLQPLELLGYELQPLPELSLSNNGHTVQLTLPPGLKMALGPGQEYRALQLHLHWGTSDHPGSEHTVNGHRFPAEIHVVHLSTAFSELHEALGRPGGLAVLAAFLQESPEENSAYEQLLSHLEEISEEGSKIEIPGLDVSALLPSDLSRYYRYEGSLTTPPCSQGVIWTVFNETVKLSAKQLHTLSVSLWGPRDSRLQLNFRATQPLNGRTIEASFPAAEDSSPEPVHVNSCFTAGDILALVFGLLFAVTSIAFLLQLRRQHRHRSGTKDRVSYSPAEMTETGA

Kd | Binder
8.2 nM | B1

Biological target: Human Her2 protein (human, UniProt P04626 23-652)

Kd | Binder
3.8 nM | B2
6 nM | B3
3.1 nM | B4
2.5 nM | B5
53.1 nM | B6
23 nM | B7
8.6 nM | B8
56.7 nM | B9
18 nM | B10
106 nM | B11
< 0.01 nM | B12
6.6 nM | B13
5.6 nM | B14
7.3 nM | B15
22.9 nM | B16
21.4 nM | B17

Biological target: T1, murine HER2

Kd | Binder
80 nM | B10
19100 nM | B11
122 nM | B16
54 nM | B17

Biological target: mouse CA9 protein (mouse, UniProt Q8VHB5 32-437)
Sequence (Q8VHB5 32-437): as above

Kd | Binder
1.4 nM | B18
